Data from the RNAGym collection of RNA variant scans (doi:10.1101/gr.219683.116).

B1: mRNA-splicing (parent)
chain: AGUUGCUGCUGGGAGCUCCAGCACAGUGAAAUGGACAGAAGGGCAGAGCAA

Variants of: B1
Test: exon inclusion enrichment index; higher = more inclusion; WT1 exon 5 minigene, HEK293

Variant	exon inclusion enrichment index
G5A U7C G8A U10C G48A	2.99
G5A U7C G8A U10C G48U	2.83
G5A U7C G8A U10C G48C	2.4
G5C C6A G8C U10A	0.77
G5A U7C G8U C9A U10C	1.23
G5C C6A U7C G8A U10A A23C C24G	0.664
G5C C6A U7C G8A U10A A23C C24A	0.209
G5C C6A U7C G8A U10A A23C C24U	0.0196
G5A U7C G8A U10C G12U G13U	0.053
G5A U7C G8A U10C G12U G13C	0.477
G5A U7C G8A U10C G12U G13A	0.238
G5A U7G G8U U10C	2.36
G5A U7C G8C C9G U10C	1.58
G5A U7C G8A U10C U27G	1.05
G5A U7C G8A U10C U27C	4.31
G5A U7C G8A U10C U27A	2.49
G5A U7C G8A U10C G21C C22A	2.27
G5A U7C G8A U10C G21C C22U	2.19
G5A U7C G8A U10C G21C C22G	3.61
G5A U7C G8A U10C G12U	1.13
G5A U7C G8A U10C G12C	1.57

Variant	exon inclusion enrichment index
G5A U7C G8A U10C G12A	1.48
G5C C6A U7C G8A U10A A23U	0.0425
G5C C6A U7C G8A U10A A23C	0.0903
G5C C6A U7C G8A U10A A23G	0.287
G5C C6A U7C G8A U10A A23U C24A	0.0357
G5A U7C G8A U10C C44A A45G	3.75
G5A U7C G8A U10C C44A A45U	4.02
G5A U7C G8A U10C C44A A45C	3.95
G5A U7C G8A U10C G15C C16A	1.77
G5A U7C G8A U10C G15C C16U	2.28
G5A U7C G8A U10C G15C C16G	2.13
G5C C6A U7C C9A U10A	0.851
G5C C6A U7C C9A U10C	2.61
G5C C6A U7A C9A U10A	0.906
G5A U7C G8A U10C G13A A14C	2.98
G5A U7C G8A U10C G13A A14G	2.19
G5A U7C G8A U10C G13A A14U	2.87
G5C C6A U7C G8A C9A U10C	1.81
G5C C6A U7C G8A C9A U10G	0.428
G5C C6A U7C G8A C9A U10A	0.239
G5A U7C G8A U10C G42A G43U	4.5

Variant	exon inclusion enrichment index
G5A U7C G8A U10C G42A G43C	4.19
G5A U7C G8A U10C G42A G43A	4.61
G5A U7C G8A U10C U32G G33U	0.923
G5A U7C G8A U10C U32G G33A	0.707
G5A U7C G8A U10C U32G G33C	2.16
G5A U7C G8A U10C G34C	0.949
G5A U7C G8A U10C G34U	0.607
G5A U7C G8A U10C G34A	1.51
G5A U7C G8A U10C G11A	1.34
G5A U7C G8A U10C G11C	1.96
G5A U7C G8A U10C G11U	1.6
G5A U7C G8A U10C U27A G28U	0.834
G5A U7C G8A U10C U27A G28C	2.42
G5A U7C G8A U10C U27A G28A	2.27
G5A U7C G8A U10C G34C A35U	0.506
G5A U7C G8A U10C G34C A35C	0.149
G5A U7C G8A U10C G34C A35G	1.69
G5A U7C G8A U10C G42C G43U	3.18
G5A U7C G8A U10C G42C G43C	3.5
G5A U7C G8A U10C G42C G43A	3
G5A U7C G8A U10C C24U A25G	3.39

Variant	exon inclusion enrichment index
G5A U7C G8A U10C C24U A25C	3.55
G5A U7C G8A U10C C24U A25U	2.36
G5A U7C G8U U10C	1.92
G5C C6A U7A G8C C9U U10C	2.04
G5C C6A U7C G8A C9G	0.446
G5C C6A U7C G8A C9A	0.746
G5C C6A U7C G8A C9U	0.616
G5C C6A U7C G8A	0.613
G5C C6A U7C G8A U10A A20C G21A	0.0158
G5C C6A U7C G8A U10A A20C G21U	0.0192
G5C C6A U7C G8A U10A A20C G21C	0.00894
G5A U7C G8A U10C G43A C44A	3.99
G5A U7C G8A U10C G43A C44G	4.11
G5A U7C G8A U10C G43A C44U	2.57
G5C C6A U7C G8A U10A A20G G21U	0.177
G5C C6A U7C G8A U10A A20G G21A	0.186
G5C C6A U7C G8A U10A A20G G21C	0.164
G5A U7C G8A U10C G42A	3.71
G5A U7C G8A U10C G42C	3.71
G5A U7C G8A U10C G42U	2.55
